# Measured values: patent US20230322888A1
# What was measured:
# Assay in all cases: cell-based or functional assay
# [1] = target: mouse GLP1 receptor (mouse) (UniProt O35659)
# [2] = target: cynomolgus monkey GLP1 receptor (cynomolgus monkey) (UniProt F8V479)
# [3] = target: human GLP1 receptor (human) (UniProt P43220)
# Chain of human GLP1 receptor (human) (P43220 24-463): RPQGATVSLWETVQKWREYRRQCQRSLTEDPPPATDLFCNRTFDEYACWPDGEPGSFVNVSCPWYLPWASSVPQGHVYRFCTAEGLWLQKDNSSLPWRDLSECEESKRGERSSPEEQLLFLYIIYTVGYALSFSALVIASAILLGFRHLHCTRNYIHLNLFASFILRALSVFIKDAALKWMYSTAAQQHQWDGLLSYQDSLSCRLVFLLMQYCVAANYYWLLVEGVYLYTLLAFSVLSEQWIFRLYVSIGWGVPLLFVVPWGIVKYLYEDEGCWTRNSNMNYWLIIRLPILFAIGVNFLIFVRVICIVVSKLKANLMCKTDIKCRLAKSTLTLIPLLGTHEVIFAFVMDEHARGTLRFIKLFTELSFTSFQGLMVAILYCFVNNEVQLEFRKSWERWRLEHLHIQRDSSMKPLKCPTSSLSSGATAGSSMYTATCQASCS
# Chain of mouse GLP1 receptor (mouse) (O35659 22-463): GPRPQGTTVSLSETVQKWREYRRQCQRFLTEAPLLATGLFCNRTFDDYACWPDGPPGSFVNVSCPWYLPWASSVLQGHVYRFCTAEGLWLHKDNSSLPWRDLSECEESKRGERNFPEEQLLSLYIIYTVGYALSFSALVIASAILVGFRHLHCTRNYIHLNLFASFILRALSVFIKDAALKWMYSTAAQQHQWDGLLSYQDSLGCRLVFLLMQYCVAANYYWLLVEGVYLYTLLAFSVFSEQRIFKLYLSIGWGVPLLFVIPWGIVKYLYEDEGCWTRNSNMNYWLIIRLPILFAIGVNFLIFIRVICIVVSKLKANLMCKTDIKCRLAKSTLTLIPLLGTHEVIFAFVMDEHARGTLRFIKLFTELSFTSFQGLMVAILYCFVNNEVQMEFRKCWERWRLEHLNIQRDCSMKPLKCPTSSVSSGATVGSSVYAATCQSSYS
# Chain of Dulaglutide (Fc fusion) (chain): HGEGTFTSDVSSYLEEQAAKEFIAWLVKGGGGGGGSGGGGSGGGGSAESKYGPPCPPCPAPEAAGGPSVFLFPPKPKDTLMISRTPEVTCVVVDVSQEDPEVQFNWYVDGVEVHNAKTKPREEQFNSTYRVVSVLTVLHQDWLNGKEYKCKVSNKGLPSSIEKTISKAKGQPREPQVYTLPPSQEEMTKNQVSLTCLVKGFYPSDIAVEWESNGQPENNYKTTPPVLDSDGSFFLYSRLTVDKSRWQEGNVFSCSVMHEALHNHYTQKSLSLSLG
# Chain of Albiglutide (chain): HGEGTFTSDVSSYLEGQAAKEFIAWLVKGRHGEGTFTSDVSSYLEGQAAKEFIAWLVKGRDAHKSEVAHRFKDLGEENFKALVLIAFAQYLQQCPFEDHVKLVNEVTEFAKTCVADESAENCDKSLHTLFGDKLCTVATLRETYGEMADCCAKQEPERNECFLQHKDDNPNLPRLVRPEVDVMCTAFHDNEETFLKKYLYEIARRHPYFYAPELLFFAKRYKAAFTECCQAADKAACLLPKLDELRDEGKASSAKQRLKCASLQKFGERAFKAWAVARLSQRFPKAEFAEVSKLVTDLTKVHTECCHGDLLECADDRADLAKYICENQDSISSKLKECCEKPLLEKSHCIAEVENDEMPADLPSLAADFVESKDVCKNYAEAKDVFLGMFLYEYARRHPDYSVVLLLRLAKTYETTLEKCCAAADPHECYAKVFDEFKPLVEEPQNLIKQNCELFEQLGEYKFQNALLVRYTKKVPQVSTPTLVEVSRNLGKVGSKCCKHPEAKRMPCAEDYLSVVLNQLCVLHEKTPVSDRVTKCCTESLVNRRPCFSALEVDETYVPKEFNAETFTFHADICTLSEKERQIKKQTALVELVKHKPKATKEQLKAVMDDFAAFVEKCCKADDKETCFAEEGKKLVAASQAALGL
# Chain of cynomolgus monkey GLP1 receptor (cynomolgus monkey) (F8V479 entry or part of it): as the sequence (P43220 24-463) above, with S112N, F120S, S202G, L205V, L237F, W241R, I249V counted along it
cAMP induction mGLP1R EC50 [1] [nM],cAMP induction CGLP1R EC50 [2] [nM],cAMP induction hGLP1R EC50 [3] [nM],Substance
0.052,0.079,–,Liraglutide (peptide)
0.012,–,–,GLP1 (from UniProt P01275 98-127) (peptide)
0.02,0.045,0.038,Dulaglutide (Fc fusion)
1.49,1.76,0.981,Albiglutide
